± gives the standard deviation of the averaged measurements.
System: ATP
Test: switch fluorescence ratio, 500 uM ATP over buffer (Cy3 cluster intensity, sum of 5 cycles each) (fold (ratio)); higher = stronger signal-on switching upon ATP binding; sequences stand for … in TCGTCGGCAGCGTCAGATGTGTATAAGAGACAGTTTTTTTTTTTTTTTTTTTTTTTTT…TC
Conditions: aptamer strand: ATP DNA aptamer (quencher-CACCTGGGGGAGTATTGCGGAGGAAGG + anchor), 100 nM annealed; ATP concentration: 500 uM
Method in brief: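 For every switch-domain sequence, the fluorescence ratio is the mean of per-cluster values, each being summed target-cycle Cy3 intensity over summed buffer-cycle Cy3 intensity. Clusters outside 100-1000 RFU were excluded. On a modified Illumina MiSeq flow-cell, the Cy3-labelled switching-strand clusters were annealed to 100 nM quencher-labelled ATP aptamer, imaged in selection buffer and then after 15 min with 500 uM ATP at 22 °C. Five such cycles were run, with NaOH stripping and re-annealing between them.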
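Further: ATP exposure 15 min at 22 °C before imaging.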

For AGATAACAGG, the switch fluorescence ratio was 1.01 ± 0.034.
For AGATAACTCA, the switch fluorescence ratio was 1.02 ± 0.048.
With AGATAACTCT the switch fluorescence ratio was 1.012 ± 0.0083.
For AGATAGGAGT, the switch fluorescence ratio was 1.02 ± 0.019.
With AGATAGTCTC the switch fluorescence ratio was 0.991 ± 0.024.
Sequence AGATATAGGG has a switch fluorescence ratio of 0.937 ± 0.012.
With AGATATCTA the switch fluorescence ratio was 0.985 ± 0.023.
With AGATATGCGT the switch fluorescence ratio was 1.025 ± 0.0013.
AGATATTGGC showed a switch fluorescence ratio of 1.03 ± 0.11.
Sequence AGATCGTTGT has a switch fluorescence ratio of 0.978 ± 0.028.
AGATCTTCGG gave a switch fluorescence ratio of 1.001 ± 0.0076.
Work on AGATGAATGT yielded a switch fluorescence ratio of 0.987 ± 0.015.
With AGATGAGGAA the switch fluorescence ratio was 1.004 ± 0.01.
Sequence AGATGAGGGA has a switch fluorescence ratio of 1.02 ± 0.032.
AGATGATTGG was tested, and the switch fluorescence ratio was 0.985 ± 0.023.
With AGATGCAGCT the switch fluorescence ratio was 0.976 ± 0.033.
With AGATGCCAGG the switch fluorescence ratio was 1.1 ± 0.031.
Work on AGATGCTTAT yielded a switch fluorescence ratio of 0.979 ± 0.019.
Sequence AGATGGATTT has a switch fluorescence ratio of 0.963 ± 0.0091.
AGATGGCGCT showed a switch fluorescence ratio of 0.967 ± 0.029.
AGATGGGCAG gave a switch fluorescence ratio of 0.996 ± 0.012.
AGATGGGTAC was tested, and the switch fluorescence ratio was 1.03 ± 0.029.
Sequence AGATGGTCAA has a switch fluorescence ratio of 0.967 ± 0.02.
Work on AGATGTATAG yielded a switch fluorescence ratio of 1.034 ± 0.009.
AGATGTCCTT was tested, and the switch fluorescence ratio was 1.02 ± 0.037.
AGATGTCTGG was tested, and the switch fluorescence ratio was 0.9897 ± 0.0063.
AGATGTGGTT showed a switch fluorescence ratio of 0.9922 ± 0.0041.
Work on AGATGTTGAA yielded a switch fluorescence ratio of 0.979 ± 0.023.
For AGATGTTTGT, the switch fluorescence ratio was 1.01 ± 0.038.
In the case of AGATTAAGTA, the switch fluorescence ratio is reported as 0.989 ± 0.024.
Sequence AGATTAATTG has a switch fluorescence ratio of 0.994 ± 0.008.
With AGATTAATTT the switch fluorescence ratio was 0.986 ± 0.021.
Sequence AGATTACTGC has a switch fluorescence ratio of 1.01 ± 0.023.
AGATTAGGCA showed a switch fluorescence ratio of 0.992 ± 0.013.
Sequence AGATTCTGGG has a switch fluorescence ratio of 0.971 ± 0.016.
In the case of AGATTCTGTA, the switch fluorescence ratio is reported as 0.97 ± 0.011.
For AGATTGAGCG, the switch fluorescence ratio was 1 ± 0.019.
Work on AGATTGATCG yielded a switch fluorescence ratio of 1.02 ± 0.015.
AGATTGATGC was tested, and the switch fluorescence ratio was 1.03 ± 0.03.
Work on AGATTGCATG yielded a switch fluorescence ratio of 1.029 ± 0.0077.
AGATTGCCGG was tested, and the switch fluorescence ratio was 0.97 ± 0.034.
In the case of AGATTGGACG, the switch fluorescence ratio is reported as 1.02 ± 0.024.
For AGATTGGGGA, the switch fluorescence ratio was 1.01 ± 0.013.
For AGATTGGGTA, the switch fluorescence ratio was 1.01 ± 0.024.
AGATTGGGTT gave a switch fluorescence ratio of 0.967 ± 0.024.
Work on AGATTGTGCT yielded a switch fluorescence ratio of 0.975 ± 0.046.
AGATTTACTT showed a switch fluorescence ratio of 0.985 ± 0.014.
AGATTTAGTC gave a switch fluorescence ratio of 1 ± 0.051.
Work on AGATTTGCTA yielded a switch fluorescence ratio of 1.004 ± 0.0078.
For AGATTTTTAT, the switch fluorescence ratio was 0.983 ± 0.012.

Source: the supplement of paper PMC10126150
